Experimental data as given in patent US20210087294A1 (University of Pennsylvania, published 2021).

Legend:
[1] = target: T1, murine fibroblast activation protein (FAP) (murine, UniProt P97321 1-761); assay: flow cytometry on BALB/c 3T3 cells expressing a murine FAP transgene
T1 construct: whole, on cells; also called mouse FAP; murine FAP
T1 sequence (looked up): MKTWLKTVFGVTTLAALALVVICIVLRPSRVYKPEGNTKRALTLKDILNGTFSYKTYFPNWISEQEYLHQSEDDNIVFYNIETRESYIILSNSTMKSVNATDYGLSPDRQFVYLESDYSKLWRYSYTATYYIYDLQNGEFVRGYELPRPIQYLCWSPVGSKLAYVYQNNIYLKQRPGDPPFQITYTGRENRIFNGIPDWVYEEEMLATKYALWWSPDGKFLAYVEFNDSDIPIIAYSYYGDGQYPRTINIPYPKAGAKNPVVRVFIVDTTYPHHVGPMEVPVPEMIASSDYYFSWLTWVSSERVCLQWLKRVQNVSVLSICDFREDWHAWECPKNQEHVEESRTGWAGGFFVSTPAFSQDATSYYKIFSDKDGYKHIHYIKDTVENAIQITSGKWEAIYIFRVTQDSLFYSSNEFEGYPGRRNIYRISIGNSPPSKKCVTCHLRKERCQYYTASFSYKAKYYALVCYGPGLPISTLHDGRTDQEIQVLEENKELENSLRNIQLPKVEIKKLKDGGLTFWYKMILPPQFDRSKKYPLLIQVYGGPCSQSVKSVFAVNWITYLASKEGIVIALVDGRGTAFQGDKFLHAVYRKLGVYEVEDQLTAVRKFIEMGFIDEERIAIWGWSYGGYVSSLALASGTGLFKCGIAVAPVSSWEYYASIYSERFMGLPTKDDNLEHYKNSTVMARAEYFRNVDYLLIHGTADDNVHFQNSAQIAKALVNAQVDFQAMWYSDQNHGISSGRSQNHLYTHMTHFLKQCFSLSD
Text: (§1) On day 241, 2017 spleens were harvested, a single cell suspension prepared, and splenocytes fused with sp2/0 cells by the UPENN Hybridoma Core Facility. Hyridomas supernatants were initially screened by FACS on MC KOSA parental (FAP null) vs. canine FAP-transgene expressing MC KOSA.K9FAP using hybridoma supernatants as the primary antibodies and AF488 goat anti-mouseIgG as a secondary. Clone 4G5 identified as reactive to transduced cells but not parental cells and screened on additional cells to confirm reactivity with FAP expressing but not FAP-negative cells: Human primary fibroblasts, BALB/c 3T3 expressing murine or human FAP transgenes, canine primary fibroblasts, SK KOSA (FAP expressing), and BALB/c 3T3 (FAP negative) cells. 4G5 was then determined to be an IgG1k isotype antibody using (Thermo Fisher Rapid ELISA Mouse mAb Isotyping Kit #37503)
(§2) BALB/c 3T3 fibroblast cells transduced to express full-length canine FAP were then used to immunize 14 week old BALB/c FAP^{-/-} mice. All injections were given intraperitoneally and consisted of 1×10⁷ cells in 0.5 ml sterile PBS. The initial immunization was followed by six booster immunizations at regular intervals over the next eight months. At the conclusion of the study, spleens were harvested, and the resulting single-cell suspensions were used to generate hybridomas via fusion with sp2/0 cells. […]

[2] = target: T2, human fibroblast activation protein (FAP) (human, UniProt Q12884 1-760); assay: flow cytometry on human primary fibroblasts and on BALB/c 3T3 cells expressing a human FAP transgene
T2 construct: whole, on cells; also called human FAP; huFAP
T2 sequence (looked up): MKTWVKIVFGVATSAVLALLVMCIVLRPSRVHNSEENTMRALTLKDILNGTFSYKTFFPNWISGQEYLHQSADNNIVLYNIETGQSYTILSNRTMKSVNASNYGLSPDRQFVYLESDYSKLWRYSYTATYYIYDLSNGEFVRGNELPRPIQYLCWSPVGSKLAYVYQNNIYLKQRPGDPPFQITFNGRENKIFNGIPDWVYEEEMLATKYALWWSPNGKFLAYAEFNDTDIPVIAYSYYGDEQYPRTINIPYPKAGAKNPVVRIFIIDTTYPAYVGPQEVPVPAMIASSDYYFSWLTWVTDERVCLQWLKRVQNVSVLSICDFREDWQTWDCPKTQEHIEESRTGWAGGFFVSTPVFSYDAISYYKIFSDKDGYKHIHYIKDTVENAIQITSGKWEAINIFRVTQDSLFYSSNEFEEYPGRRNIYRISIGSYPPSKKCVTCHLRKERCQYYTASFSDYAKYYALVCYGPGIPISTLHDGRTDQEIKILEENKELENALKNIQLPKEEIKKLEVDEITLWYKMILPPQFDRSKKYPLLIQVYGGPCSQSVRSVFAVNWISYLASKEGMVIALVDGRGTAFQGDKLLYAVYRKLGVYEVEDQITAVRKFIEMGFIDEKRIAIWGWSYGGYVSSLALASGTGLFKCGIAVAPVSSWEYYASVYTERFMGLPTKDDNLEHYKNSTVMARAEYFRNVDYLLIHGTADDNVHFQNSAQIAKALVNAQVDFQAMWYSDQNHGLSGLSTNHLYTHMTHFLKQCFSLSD
Text: as §1, §2

- binding result [1]: binds
- binding result [2]: binds
B1: 4G5 anti-canine FAP antibody (antibody, V domains shown)
VH: QVQLQQPGAELVKPGASVKLSCKASGYTITSYSLHWVKQRPGQGLEWIGEINPANGDHNFSEKFEIKATLTVDSSSNTAFMQLSRLTSEDSAVYYCTRLDDSRFHWYFDVWGAGTTVTVSS
VL: QIVLTQSPALMSASPGEKVTMTCTASSSVSYMYWYQQKPRSSPKPWIFLTSNLASGVPARFSGRGSGTSFSLTISSMEAEDAATYYCQQWSGYPPITFGSGTKLEIK
notes: Mouse hybridoma monoclonal antibody, tested as hybridoma supernatant or immunoglobulin; also called clone 4G5; 4G5 immunoglobulin
